The values that follow are results of earlier work, collected in PMC7314768.

Data set [1] concerns the target Cys145 (UniProt position 3385, FLNGSCGSVGF).
In data set [2] the target is His41 (UniProt position 3281, VYCPRHVICTA).

The pKa is the negative logarithm of the acid dissociation constant. For the substance “3C-like main protease (3CL Mpro, 3CLpro, nsp5) of SARS coronavirus (Severe acute respiratory syndrome coronavirus (SARS-CoV))”, the pKa in data set [1] is given as 8.0 ± 0.3; in data set [2] it was 6.3 ± 0.1.
